Here are results for 14 sequences from the DeepSol protein solubility set.

The nature of this series: soluble on expression in E. coli; label from the status in PepcDB or PDB records.
For “MSLRSMFMYKSHIPEDCEEEAQITAAKLILLVDDDPVFRRMTKGYLQKYGYQVIEAENGLDGLRKLRDHEPDLILCDLSMPVLNGIEFVEEVSSSYPSLPLVVVSATEEMADVAKALRFGIKDFLPKPITNHSHLASAIEKVLANDDHQRDFASCWYGADRQGSIPEEQELHWHLQYLKDNPNAAKELLEALLPEKDSQLGSWKCSYRLLQSAELMPLVFDYAWLMNGQFVFYVVDAASHRECGAASTLLVRALFHDYLRNLRNFSVELKDLAEIIERGIHCSECIGKVSALFGVADLADGTLSLLPAGLDCQWSNGYVHNRITSGVQLGDNSLRNFITKDLPIRAACQISLSKPSAYSFTLDLYQGEGHHHHHH”, the “soluble on expression in E. coli” value is “soluble”.

Consider “MSLRTGKTNVIALVLSVDEELMGFTSQMVFGITEVLSTTQYHLVVTPHIHAKDSMVPIRYILETGSADGVIISKIEPNDPRVRFMTERNMPFVTHGRSDMGIEHAFHDFDNEAYAYEAVERLAQCGRKRIAVIVPPSRFSFHDHARKGFNRGIRDFGLTEFPIDAVTIETPLEKIRDFGQRLMQSSDRPDGIVSISGSSTIALVAGFEAAGVKIGEDVDIVSKQSAEFLNWIKPQIHTVNEDIKLAGRELAKALLARINGEAAETLQSISGPVWSSMAPKEGHHHHHH”, for which the “soluble on expression in E. coli” value is “soluble”.

In the case of “MSLRTTDDLPNALPPALESMTLLVAAVIVHDQATNRVVLLQRSENAKFAQGMWDLPVGKSEPGEPITETAVRELHEETGLTVKPEALMVAHIIHGSWGVEAPNGFLTVVFATHEWTGEPENREPRKHSQVRWVDADAIPEECVDTTASALHHYLSGGAQVSLDGWLPKEGHHHHHH”, the “soluble on expression in E. coli” value was “soluble”.

On to “MSLRTVLITGTTSGIGYALSELFAKKECHVILVSRNAMKLSAQKQKLENGNNRIDTITCDLEQTNAAEIIYKSIKQNGWQVDILVNNAGFNEAGLFSETDATCEQGMINLHINFVTDMMKLFIPEMIQNSHGHILNVGSTGSYIACPKDAVYAASKAYILHLSKAVHAELKGTGVTVTTLCPGSTRTEFAHKAKIEHTLLFKIFVMSPHKVALSGLRAMEKGKSVIIPGLYNKILVLCSRLLPYSFIGWMTKKMLEGHHHHHH”, for which the “soluble on expression in E. coli” value is “not soluble”.

“MSLRYDRAGDQHYDVASALIKSMRGSDVDAALHYLARMVEAGEDPRFIARRIVIAAAEDVGMADPSALQTAVAAMHAVAQIGMPEARIVLAQAVVHNATAPKSNAAYAGINAAIADVRAGLGGSVPAHLRDAHYAGAGKLGHGKGYVYTHDVPAGVAEQQYAPDELVGKDYYVPTDRGFENQLRERLARLRRVLRGREGHHHHHH”: the “soluble on expression in E. coli” value was “soluble”.

For “MSLSALLNYKLEGSGETVVLIHGLFGSLDNLGLLARDLKNDHQVLSLDLRNHGLSFHSDEHNYALMAQDVNQLLEHLNLTSVVVIGHSMGGKVAMKLADIAAEKVRQLVVLDMSPVAYSQRRHDNVFAGLEAVLVQKPTSRSEVMAILAQHIEQEGVRQFLGKSLMSEQNVMTWRFNVAALKAHYAEILGWDIIAKCRIPTLFIKGADSDYLTTQHQPMVQAQFSQAKAHVIANTGHWLHAEKPAEVIRAIRKFIDVPVEGHHHHHH”, the “soluble on expression in E. coli” value is given as “soluble”.

As for “MSLSAPKQWQVGIVGYGEVGKILAEDLRAQGVKVAAYDVKLADDRGGPLREHASRHDVALTTSHAELAARSDFIISAVTASQTVAVAEACAGAINQGTWFLDFNSASPGAKQRAASLIDGAQGRYVEGAVMTSVPPYRIKVPLLLGGAYAAELAPLINTLGFAAKPASDQLGVASATKMCRSIMIKGLEAMVIESFTTARAYGVEDAVIASLQETFPQIDWEKQGAYFFQRVIAHGRRRAEEVREVAETVREAGLTPWSAQGTAERQAWVADLADEGLFGTRGASGFARSPDWRTEADRILAKVKDETKTEGHHHHHH”, the “soluble on expression in E. coli” value was “not soluble”.

For “MSLSAPLPLCVIGAGCVGMRHVEVARRSPQIRLTAVVEPVETRRRALAESGLVAVATLEEVPRETRAAIVATPTPDHLATGLAALSRGWAVLVEKPTAGTMDDARVLLGAADRAGLPLYVGHHRRCHPFSRAAREALGGIGDLVGLQGLWSLRKHDSYYAEDWRRQAGAGPLMTNLSHEIDLLRFLVGDMVEVSALTSSARRGLVVPDTAALAFRFADGALGSFLISDAGASPWSFEAACAENPAIAVSGQDYIRITGTAGALEFPSLTRWGRSAPGEIEWSKPLARAAGAGFARVDPLLEQINRFAAVLEGAQDDVLCTGTDGNAALEMTLAAALSGKLGRPVRAHEVPGDYSGEGHHHHHH”, the “soluble on expression in E. coli” value is reported as “soluble”.

Regarding “MSLSDILILTHAEFCPPGHLATVLAQRGLDFRVVRADLGQLAGLDAERPRAVAIMGGPMSVNDDLPWLGDELALLRRFIERRIPLLGHCLGGQLLARVLGATVRQQPYTEMGWQPMQRESRDSPWLAHLPERFAIFQWHGDAFDLPQGAERLLSSAWCENQAFSWGGHVLGLQGHPEMTEELVRRWIDGWPQLLDSSQPSQQSREAMLADLPLKVAALNRVAEGFYRHWLSLLREGHHHHHH”, the “soluble on expression in E. coli” value is “not soluble”.

In the case of “MSLSDINNMAYGISDMLGSIDNLAMFDLVVPHFRGKENECLFGMFGRATTTLQGGKIAKHVQEIFAETLTAHLHKLEPGEEPSEALRRTFLWGDRKAFEFFSGKLQLEKERKPSWTSFASFDSMFRGWTPGVNSVLRTGASGAVVYLVDKVLHVGSIGDTLVVLSRKGDAELLSKRHDPTDREESARIRKAEAWVSTKGFVNDDKDLDISRAFGYWHECPAVNAAPEIRTRRLQESDEFVIIGNHALWQFCSYQTAVDIARTERDDPMIAAQKLRDFAISYGAEGNVMVMVVNVSDLFLGKEGHHHHHH”, the “soluble on expression in E. coli” value is “not soluble”.

For the sequence “MSLSEGTFEVGKNTFLLNGEPFVVKAAEIHYPRIPKEYWEHRIKMCKALGMNTICLYVFWNFHEPEEGRYDFAGQKDIAAFCRLAQENGMYVIVRPGPYVCAEWEMGGLPWWLLKKKDIKLREQDPYYMERVKLFLNEVGKQLADLQISKGGNIIMVQVENEYGAFGIDKPYISEIRDMVKQAGFTGVPLFQCDWNSNFENNALDDLLWTINFGTGANIDEQFKRLKELRPDTPLMCSEFWSGWFDHWGAKHETRSAEELVKGMKEMLDRNISFSLYMTHGGTSFGHWGGANFPNFSPTCTSYDYDAPINESGKVTPKYLEVRNLLGNYLPEGETLPEIPDSIPTIAIPTIKMTEMAVLFDNLPHPKESEDIRTMEAFDQGWGSILYRTSLSASDKEQTLLITEAHDWAQVFLNGKKLATLSRLKGEGVVKLPPLKEGDRLDILVEAMGRMNFGKGIYDWKGITEKVELQSDKGVELVKDWQVYTIPVDYSFARDKQYKQQENAENQPAYYRSTFNLNELGDTFLNMMNWSKGMVWVNGHAIGRYWEIGPQQTLYVPGCWLKKGENEIIILDMAGPSKAETEGLRQPILDVQRGNGAYAHRKMGEGHHHHHH”, the “soluble on expression in E. coli” value is “soluble”.

“MSLSENIAAYVGLDVHKETLAVAIAAPERLGEVRYYGTINNEAQAVRRLFQKLQGLYGNILSCYEAGPCGFGLYHQLTAMNIKCQVIAPSRIPKSPTDRIKNDHRDAISLARLLRAGELTPVWIPDLTHEAMRDLIRARAAAKRDSRVARQRILSMLLRTDKHYAGKHWTGKHRTWLANQSFSQPSQQIAFQHYCQSLEQIEDRILQLDQEISRLLPEWSLCNLVCQLQALKGVGQLIAITLVAELGDFSRFSNPKQLMAFLGLVPGEYSSGNSIRPRGITKVGNSELRRLLYEAAWSYRTPAKVGAWLIYYRPDSVTQYSKDIAWKAQQRLCSRYRSLTAKGKKSQVAITAVARELTGFMWDIALAEGHHHHHH”: the “soluble on expression in E. coli” value is “not soluble”.

“MSLSEPSVQADTRLNALIVQDIPERMPIYRALIEQLDVPSTLIEIEAMIVDVNTDLVNELGVTWGAQIGTTSLGYGDLGLRPGNGLPVDGAAAELAPGTLGISVSTRLAARLRALESDGQANILSQPSILTADNLGAMIDLSDTFYIRTLGERVATVTPVTVGTSLRVTPRYIAAKGGRQVELAIDIEDGRVLQEYPIDGLPRVRKSSISTLAVVGDEQTLLIGGYNNRRDEEQVEKVPLLGDIPGLGFLFSSKSRAVQRRERLFLIRPRVVAIEGKPVFSPVAGTSQVFMSTEGHHHHHH”: the “soluble on expression in E. coli” value is given as “soluble”.

With “MSLSEVQPIPVTVSQYSYYSDKNYPKRRTMEDAHVICDPLIEVEGRVYSLYAIFDGHRGRTAAQHCAKIVKDKIKEVLQRKDEGFEEMMQDAMYEMDMSLKENGIEYSGCCALMCIIEIKDKKRIIHMANCGDSCGIIIGTNEVIPMSEEHKATNENEAKRIKESGGMIINGRVSGDVAVTRGLGDHHLKQWVVSEPFVKEVEWQEDYKYIVLGCDGLWDTLNGNQIKEVLESNNCEFTSSAKSLTQLAIGKGSTDNITTIVLKLEGHHHHHH”, the “soluble on expression in E. coli” value is recorded as “soluble”.
